The numbers were not newly measured in publication PMC5218898, which cites them from elsewhere.

In series [1] the target is EnvZ (Escherichia coli) (UniProt P0AEJ4).
Series [2] deals with RstB (Escherichia coli) (UniProt P18392).

pKd: −log10 of the molar value.

As for EnvZ (from UniProt P0AEJ4), the pKd in series [1] was 6.52. Turning to RstB (from UniProt P18392), the pKd in series [2] was 6.52.
